Data as given in US20070041944A1, “Treating tumors by ENH dislocation of ID proteins” (THE TRUSTEES OF COLUMBIA UNIVERSITY IN THE CITY OF NEW YORK, priority 2005, published 2007).

Columns and labels:
[1] = test system: SK-N-SH cells; assay: BrdU incorporation study; assay type: cell-based, human; conditions: BrdU 6 h and 14 h
Experimental: BrdU Incorporation Study: SK-N-SH cells were plated in Lab-Tek Chamber Slides (Nalge Nunc Intl.). Cells were transfected with plasmids expressing the empty vector, Id2, ENH, or both and an EGFP expression vector to identify transfected cells. After 24 h, cells were labeled with 10 μM BrdU for 6 h and 14 h, fixed, and stained with anti-BrdU antibody (Roche) for 1 h at room temperature. Secondary antibody was donkey anti-mouse, Cy3-conjugated (Jackson hnmunoResearch). Nuclei were counterstained with DAPI. Cells were examined on an Olympus epifluorescence microscope. BrdU-positive cells were scored by counting at least 500 GFP-positive cells in three independent experiments.
A well known function of Id2 is the ability to enhance cell proliferation by promoting the transition from G1 to S phase of the cell cycle. Therefore, it was asked whether ENH inhibited cell proliferation and opposed Id2-mediated entry into S phase. […] Next SK-N-SH was transfected with ENH and Id2 in the presence of a GFP expression plasmid and measured the rate of DNA synthesis by incorporation of BrdU of the successfully transfected, GFP-positive cells.

[2] = target: T1, GST-Id3 (Homo sapiens, UniProt Q02535); assay: GST pull-down assay with GST-Id3; assay type: binding; conditions: in vitro-translated 35S-labeled ENH (FIG. 2B Right)
T1 construct: made in house; host or cells: E. coli BL21 Star (Invitrogen)
T1 sequence (Q02535 1-119): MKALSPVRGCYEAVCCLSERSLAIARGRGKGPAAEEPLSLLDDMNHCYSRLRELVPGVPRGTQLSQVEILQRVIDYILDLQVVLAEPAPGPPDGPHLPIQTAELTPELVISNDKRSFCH
Experimental: (§1) GST Pull-Down Assay, Western Blot, and Coimmunoprecipitation: GST fusion proteins were purified from BL21 Star (Invitrogen). GST pull-down assay was performed as described in lavarone, A. et al., (1994), Genes Dev., 8:1270-1284. For Wetern blot analysis, cellular pellets were lysed in ice-cold RIPA buffer (50 mM Tris, pH 7.5/150 mM NaCl/1% Nonidet P-40/0.5% sodium deoxycholate/0.1% SDS) containing Complete Mini protease inhibitor pellet (Roche) and 1 mM PMSF. Lysates were electrophoresed on SDS/PAGE gels and transferred to nitrocellulose membrane (Amersham Pharmacia Biotech). Membranes were stained with antibodies against ENH, Id2 (Santa Cruz Biotechnology), and α-tubulin (Sigma), and blots were developed by using ECLWestem Blotting Detection System (Amersham Pharmacia Biotech). The anti-ENH antibody is a rabbit polyclonal that was produced in collaboration with Zymed against a peptide that is fully conserved in the mouse sequence (KQQNGPPRKHI (SEQ ID NO:1)). Coimmunoprecipitation of Id2 and ENH from cells transfected with pcDNA.3-Id2 and p3XFlag-ENH was performed as described (lavarone, A. et al., (2004), Nature, 432:1040-1045).
Given the high homology among the HLH domains of the three Id proteins, it was asked whether Id1 and Id3 could also bind ENH in this assay. Indeed, both GST-Id1 and GST-Id3 bound to full-length ENH (FIG. 2B Right).

[3] = test system: GST-δHLHId2; assay: GST pull-down assay with GST-Id2 lacking the HLH domain; assay type: binding; conditions: in vitro-translated 35S-labeled ENH (FIG. 2B Right)
Experimental: as §1
To validate the specificity of the binding between ENH and Id2 and identify the domains that mediate this interaction, GST fusion proteins and in vitro-translated proteins in pull-down assays.

[4] = target: T2, Id2 (Homo sapiens, UniProt Q02363); assay: Coimmunoprecipitation of Id2 and Flag-tagged ENH in transfected Cos-1 cells; assay type: binding; conditions: Cos-1 cells transfected with Id2 and Flag-tagged ENH
T2 construct: expressed in transfected cells; host or cells: Cos-1
T2 sequence (Q02363 1-134): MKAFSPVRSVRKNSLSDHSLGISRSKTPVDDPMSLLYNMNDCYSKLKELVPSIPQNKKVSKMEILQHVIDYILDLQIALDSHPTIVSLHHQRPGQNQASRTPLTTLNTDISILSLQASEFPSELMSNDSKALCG
Experimental: as §1
To determine whether Id2 binds ENH in vivo, coimmunoprecipitation experiments were performed after transfecting Id2 and Flag-tagged ENH in Cos-1. Anti-Id2 antibodies precipitated full-length Flag-ENH but not Flag-ENHδLIM (FIG. 2C). […]

B1: ENH: actin cytoskeleton-associated PDZ-LIM protein ENH (Enigma Homologue), full-length, SEQ ID NO:4; also used Flag-tagged (protein, listed as Homo sapiens)
chain: MSNYSVSLVGPAPWGFRLQGGKDFNMPLTISSLKDGGKAAQANVRIGDVVLSIDGINAQGMTHLEAQNKIKGCTGSLNMTLQRASAAPKPEPVPVQKGEPKEVVKPVPITSPAVSKVTSTNNMAYNKAPRPFGSVSSPKVTSIPSPSSAFTPAHATTSSHASPSPVAAVTPPLFAASGLHANANLSADQSPSALSAGKTAVNVPRQPTVTSVCSETSQELAEGQRRGSQGDSKQQNGPPRKHIVERYTEFYHVPTHSDASKKRLIEDTEDWRPRTGTTQSRSFRILAQITGTEHLKESEADNTKKANNSQEPSPQLASSVASTRSMPESLDSPTSGRPGVTSLTTAAAFKPVGSTGVIKSPSWQRPNQGVPSTGRISNSATYSGSVAPANSALGQTQPSDQDTLVQRAEHIPAGKRTPMCAHCNQVIRGPFLVALGKSWHPEEFNCAHCKNTMAYIGFVEEKGALYCELCYEKFFAPECGRCQRKILGEVINALKQTWHVSCFVCVACGKPIRNNVFHLEDGEPYCETDYYALFGTICHGCEFPIEAGDMFLEALGYTWHDTCFVCSVCCESLEGQTFFSKKDKPLCKKHAHSVNF
Id2-mediated stimulation of DNA synthesis ([1]; ENH and Id2 cotransfected): abrogated | S phase entry (BrdU incorporation of GFP-positive cells) ([1]; ectopic ENH): strongly inhibited | binding of GST-Id3 to ENH [2]: bound | binding of GST-δHLHId2 to ENH [3]: failed to bind | precipitation by anti-Id2 antibodies ([4]; Western blot for Flag (FIG. 2C)): precipitated | Id2 in Flag immunoprecipitates ([4]; Western blot for Id2 (FIG. 2D)): contained Id2
